Test results as given in article PMC3272785.

Tested on: Nc1nc(=O)[nH]cc1F
Assay: steady-state kinetics
Assay type: biochemical, Saccharomyces cerevisiae
Details: Zn2+

Substance | Km [mM] | kcat [s⁻¹] | kcat/Km [M⁻¹ s⁻¹]
yeast cytosine deaminase (yCD) (Saccharomyces cerevisiae S288C; E64A) | 33 ± 6 | 7.3e-05 ± 6e-06 | 0.0022
yeast cytosine deaminase (yCD) (Saccharomyces cerevisiae S288C; E64D) | 19 ± 6 | 0.0051 ± 0.001 | 0.26
